Source: article PMC2744139

Biological target: Cdc13 amino-terminus through the DBD (N) (S. cerevisiae)
Assay: fluorescence polarisation

Kd: 35 nM
Substance: Hsp82 (yeast Hsp90 molecular chaperone) (from UniProt P02829 1-709) (natural protein)
